Test results as given in the supplement of paper PMC10126150.
± gives the standard deviation of the averaged measurements.

Each sequence was assayed on ATP (assay: switch fluorescence ratio, 500 uM ATP over buffer (Cy3 cluster intensity, sum of 5 cycles each) (fold (ratio)); higher = stronger signal-on switching upon ATP binding; sequences stand for … in TCGTCGGCAGCGTCAGATGTGTATAAGAGACAGTTTTTTTTTTTTTTTTTTTTTTTTT…TC). Settings: aptamer strand: ATP DNA aptamer (quencher-CACCTGGGGGAGTATTGCGGAGGAAGG + anchor), 100 nM annealed; ATP concentration: 500 uM.
In short: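 Cy3-labelled switching-strand clusters on a modified Illumina MiSeq flow-cell were annealed to 100 nM quencher-labelled ATP aptamer, imaged in selection buffer, then imaged after 15 min with 500 uM ATP at 22 °C. Five buffer/ATP cycles ran, with NaOH stripping and re-annealing between them. The fluorescence ratio is summed target-cycle over summed buffer-cycle Cy3 intensity per cluster, averaged per switch-domain sequence. Clusters outside 100-1000 RFU were excluded.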
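Further: ATP exposure 15 min at 22 °C before imaging.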

TTGGAAAATT and TGTGGGGCAG are within error of each other in switch fluorescence ratio: 1.21 ± 0.35 for the first, 0.968 ± 0.03 for the second.

TTAATGGGTT and CTGGGGTTAC are within error of each other in switch fluorescence ratio: 1.09 ± 0.14 for the first, 1.77 ± 1 for the second.

AAGTTATGGG and ACACGTAGTT are within error of each other in switch fluorescence ratio: 1 ± 0.023 for the first, 0.984 ± 0.021 for the second.

ATGGGGGCGA and TTGTAGGGGG are within error of each other in switch fluorescence ratio: 0.978 ± 0.014 for the first, 1.17 ± 0.4 for the second.

TCTAGTTAGG and ATATTTCATG are the same in switch fluorescence ratio: 1.0115 ± 0.00098 for the first, 1.006 ± 0.0091 for the second.

GGACGAATGG and ATGGCGGGGA are within error of each other in switch fluorescence ratio: 1.02 ± 0.013 for the first, 0.984 ± 0.052 for the second.

CGTTCGTGGG and TGTTTACACT are within error of each other in switch fluorescence ratio: 0.953 ± 0.018 for the first, 1.01 ± 0.051 for the second.

Compared with TGGGGCTTCG, TTTATCAACG is higher in switch fluorescence ratio: 0.92 ± 0.077 for the first, 1.046 ± 0.0027 for the second.

TCACTCCTTT and ACGTAGTCAT are within error of each other in switch fluorescence ratio: 1.01 ± 0.019 for the first, 1.04 ± 0.03 for the second.

GGACTTGTTT and TGTTTATTCG are within error of each other in switch fluorescence ratio: 0.984 ± 0.022 for the first, 0.97 ± 0.034 for the second.

GCTGTGTAGA and GGGCTTGGGT are within error of each other in switch fluorescence ratio: 1.073 ± 0.0021 for the first, 1.08 ± 0.12 for the second.

First: GGTCACTGCG
Second: CGGAAACTAG
The switch fluorescence ratio of the first is lower: 0.9955 ± 0.0064 for the first, 1.022 ± 0.0038 for the second.

Going from ATGAGAGGAT to TTCGTAAGGG, the switch fluorescence ratio rises from 0.9797 ± 0.0026 to 1.012 ± 0.01.

CATCGTGGGT and TTGTCTGGGC are within error of each other in switch fluorescence ratio: 0.975 ± 0.027 for the first, 0.984 ± 0.032 for the second.

GGGTATCACT and TGAAAGAGGC are within error of each other in switch fluorescence ratio: 0.992 ± 0.016 for the first, 0.999 ± 0.014 for the second.

Compared with TCTTGGATGT, CCAACAGGCC is higher in switch fluorescence ratio: 1.0101 ± 5.3e-05 for the first, 1.14 ± 0.12 for the second.

AAGAATTTTT and TTTAGACGAC are within error of each other in switch fluorescence ratio: 1 ± 0.023 for the first, 1.04 ± 0.051 for the second.

Going from ACGGAAGGGC to ACCTCCAACT, the switch fluorescence ratio rises from 1.11 ± 0.059 to 1.179 ± 0.0092.

First: TAGTGAGGCT
Second: AGGTCTATTT
The switch fluorescence ratio of the first is lower: 0.996 ± 0.01 for the first, 1.008 ± 0.0024 for the second.

First: TTACCGTCGC
Second: GGAGGCTGGT
The switch fluorescence ratio of the first is higher: 1.037 ± 0.0027 for the first, 1.018 ± 0.01 for the second.

ACGGGGCTGG and GGTAGAAACT are within error of each other in switch fluorescence ratio: 1.02 ± 0.048 for the first, 1.04 ± 0.014 for the second.

Going from AACGGCTTCA to TAATTTGTTG, the switch fluorescence ratio falls from 1.057 ± 0.0029 to 0.988 ± 0.028.

Compared with TTTAGGTACG, TTCGCATAAT is higher in switch fluorescence ratio: 1 ± 0.018 for the first, 1.62 ± 0.3 for the second.

TTAGGCTAAT and TCTGGGCTTT are within error of each other in switch fluorescence ratio: 1.02 ± 0.025 for the first, 1.07 ± 0.1 for the second.

TAATACCGTA and ATACCTGAGC are within error of each other in switch fluorescence ratio: 1.06 ± 0.084 for the first, 1.113 ± 0.0041 for the second.

Compared with ACCTGATAGT, TGACTTTTGT is lower in switch fluorescence ratio: 1.044 ± 0.0066 for the first, 0.98 ± 0.0015 for the second.

ACAAAGTAAA and TTAAAGGCAG are within error of each other in switch fluorescence ratio: 1.01 ± 0.035 for the first, 0.989 ± 0.025 for the second.

Compared with TCTCCATTGC, AAGGTAACAA is lower in switch fluorescence ratio: 1.67 ± 0.035 for the first, 1.01 ± 0.051 for the second.

Going from TTTAAGATGG to GGTTTGTATG, the switch fluorescence ratio falls from 1.02 ± 0.02 to 0.976 ± 0.021.

TTCGAGTCCG and TTAGTCGGAG are within error of each other in switch fluorescence ratio: 1.03 ± 0.06 for the first, 0.981 ± 0.01 for the second.

GTTTTAAGTG and TATTTGGGGT are within error of each other in switch fluorescence ratio: 0.981 ± 0.034 for the first, 0.999 ± 0.027 for the second.

CTCGGGTGCG and ATTGTGTCTG are within error of each other in switch fluorescence ratio: 0.973 ± 0.071 for the first, 1 ± 0.042 for the second.

AGATTGGAAT and CAGCCGGGGA are within error of each other in switch fluorescence ratio: 0.9968 ± 0.0058 for the first, 1.02 ± 0.019 for the second.

Going from GTTACTCTGA to CGGTTACATT, the switch fluorescence ratio falls from 1.055 ± 0.0083 to 1 ± 0.014.

CCGTGAGGTA and TAATGGGGAT are within error of each other in switch fluorescence ratio: 1 ± 0.026 for the first, 0.989 ± 0.022 for the second.

AACGATGAAG and GGTGTGGGCA are within error of each other in switch fluorescence ratio: 1.01 ± 0.043 for the first, 0.998 ± 0.041 for the second.

CTGGGGATGG and TGGCTTTTAA are within error of each other in switch fluorescence ratio: 0.995 ± 0.02 for the first, 1.013 ± 0.007 for the second.

AAGACGAATT and GACAGCCTTA are the same in switch fluorescence ratio: 1.01 ± 0.058 for the first, 1.01 ± 0.0069 for the second.

Sequence TGATTTAATT has a switch fluorescence ratio of 0.97 ± 0.036.
